± gives the uncertainty stated by the source.
Assay: self-splicing fitness, log relative to wild type (ln ratio); higher = more splicing; Tetrahymena group I intron in knt gene, E. coli kanamycin selection, DiMSum; sequences stand for … in CUCUCU…GGAGGGAAAAGUUAUCAGGCAUGCACCUGGUAGCUAGUCUUUAAACCAAUAGAUUGCAUCGGUUUAAAAGGCAAGACCGUCAAAUUGCGGGAAAGGGGUCAACAGCCGUUCAGUACCAAGUCUCAGGGGAAACUUUGAGAUGGCCUUGCAAAGGGUAUGGUAAUAAGCUGACGGACAUGGUCCUAACCACGCAGCCAAGUCCUAAGUCAACAGAUCUUCUGUUGAUAUGGAUGCAGUUCACAGACUAAAUGUCGGUCGGGGAAGAUGUAUUCUUCUCAUAAGAUAUAGUCGGACCUCUCCUUAAUGGGAGCUAGCGGAUGAAGUGAUGCAACACUGGAGCCGCUGGGAACUAAUUUGUAUGCGAAAGUAUAUUGAUUAGUUUUGGAGUACUCGUGGUCG
Outline: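 DiMSum derived fitness as the error-weighted combination of fold changes across replicates, kanamycin versus no kanamycin, normalised to wild type. E. coli BL21(DE3) held the library, which randomised all eight P1ex-region intron nucleotides within the knt kanamycin-resistance gene on pET-22b(+). Six replicate transformations grew overnight at 37°C or 30°C on LB agar with or without 25 μg/mL kanamycin, also containing 100 μg/mL carbenicillin, 50 μM IPTG and 0.2% rhamnose, and pooled colonies were amplicon-sequenced on an Illumina HiSeq 2500.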

Sequence	self-splicing fitness (ln) (30 °C)	self-splicing fitness (ln) (37 °C)
ACAUAGCAAUAUUACGCAGA	-2.47 ± 0.14	-1.74 ± 0.14
CAAUAGCAAUAUUACGCAAG	-1.19 ± 0.1	-0.905 ± 0.14
GCUAAGCAAUAUUACGCGUC	-0.276 ± 0.14	-2.47 ± 0.19
CACUAGCAAUAUUACGGGAA	-2.2 ± 0.18	-2.29 ± 0.17
UCCAAGCAAUAUUACGUUGC	-3.7 ± 0.17	-2.41 ± 0.19
AAAUAGCAAUAUUACGGAAG	-3.63 ± 0.25	-2.15 ± 0.18
CAGUAGCAAUAUUACGAGAA		-3.36 ± 0.46
AAAAAGCAAUAUUACGCAGU	-1.99 ± 0.15	-2.19 ± 0.2
CUAAAGCAAUAUUACGUGUC	-3.88 ± 0.2	-2.85 ± 0.25
UGGCAGCAAUAUUACGUGGU	-2.84 ± 0.15	-2.99 ± 0.23
CCUGAGCAAUAUUACGUCUG	-2.44 ± 0.14	-1.4 ± 0.13
CGGGAGCAAUAUUACGAUGG	-2.44 ± 0.2	-0.953 ± 0.24
GGCCAGCAAUAUUACGCACG	-1.18 ± 0.07	-0.36 ± 0.082
CAACAGCAAUAUUACGCUAG	-3.53 ± 0.13	-2.6 ± 0.14
UGACAGCAAUAUUACGGCCA	-0.00432 ± 0.11	0.373 ± 0.13
UGCAAGCAAUAUUACGAACC	-1.15 ± 0.15	-0.525 ± 0.17
UUUGAGCAAUAUUACGGCGG	-1.04 ± 0.24	-1.57 ± 0.28
UGCAAGCAAUAUUACGAGGC	-4.02 ± 0.27	-2.13 ± 0.23
UCCCAGCAAUAUUACGUGGC	-3.54 ± 0.15	-2.92 ± 0.23
CGUUAGCAAUAUUACGAAAA	-2.76 ± 0.49	-1.83 ± 0.3
CGGGAGCAAUAUUACGUAUG	-3.99 ± 0.35	
AACAAGCAAUAUUACGACAA	-1.28 ± 0.12	-1.18 ± 0.098
AGUCAGCAAUAUUACGGUCG	0.451 ± 0.089	0.0344 ± 0.12
AGUGAGCAAUAUUACGCGGA	-2.28 ± 0.3	-1.99 ± 0.23
CUGAAGCAAUAUUACGACAU	-0.393 ± 0.012	0.115 ± 0.033

Sequence	self-splicing fitness (ln) (30 °C)	self-splicing fitness (ln) (37 °C)
UAGGAGCAAUAUUACGGCAC	-2.4 ± 0.15	-2.53 ± 0.26
GCCCAGCAAUAUUACGCUCC	-0.416 ± 0.11	-0.675 ± 0.12
CCACAGCAAUAUUACGUAGA	-2.28 ± 0.085	-1.5 ± 0.12
UGACAGCAAUAUUACGCUGA	-2.69 ± 0.17	-2.08 ± 0.24
GCGUAGCAAUAUUACGACGG	-3.73 ± 0.48	-2.79 ± 0.43
UGCUAGCAAUAUUACGGACG	0.0612 ± 0.08	0.414 ± 0.099
GCCUAGCAAUAUUACGCGUC	-1.92 ± 0.15	-0.202 ± 0.12
CCAAAGCAAUAUUACGUGUU	-3.49 ± 0.11	-1.56 ± 0.09
GUUGAGCAAUAUUACGCUGA	-3.9 ± 0.35	-2.61 ± 0.24
CAACAGCAAUAUUACGAAGA	-2.55 ± 0.17	-2.35 ± 0.17
CCGAAGCAAUAUUACGGCUU	-3.9 ± 0.29	-3.29 ± 0.32
GGUAAGCAAUAUUACGACCG	-1.05 ± 0.16	0.0485 ± 0.22
GACUAGCAAUAUUACGGUUU	-1.7 ± 0.092	-1.53 ± 0.11
UCCAAGCAAUAUUACGAUCC		-0.628 ± 0.48
UCGUAGCAAUAUUACGGAGC	-2.59 ± 0.18	-2.35 ± 0.39
CACGAGCAAUAUUACGGACG	-1.34 ± 0.075	-0.15 ± 0.1
CCAGAGCAAUAUUACGUUGA	-2.69 ± 0.22	-3.35 ± 0.24
GAAUAGCAAUAUUACGGUGA	-1.69 ± 0.12	-1.36 ± 0.11
CCCGAGCAAUAUUACGAGCA	-2.24 ± 0.27	-2.04 ± 0.25
AUCUAGCAAUAUUACGAAAU	-1.81 ± 0.11	-0.899 ± 0.11
UAUAAGCAAUAUUACGCCAU	-1.19 ± 0.23	-2.11 ± 0.28
CAGAAGCAAUAUUACGUGGG	-3.34 ± 0.17	-2.6 ± 0.16
CGUAAGCAAUAUUACGUCGU	-3.41 ± 0.16	-1.63 ± 0.15
UGCUAGCAAUAUUACGAGGU	-2.94 ± 0.27	-3.27 ± 0.39
UGACAGCAAUAUUACGGUCC	-0.746 ± 0.18	-0.15 ± 0.23

Sequence	self-splicing fitness (ln) (30 °C)	self-splicing fitness (ln) (37 °C)
GGUCAGCAAUAUUACGGUGG	-4.17 ± 0.28	-1.32 ± 0.13
CCAAAGCAAUAUUACGGAAU	-4.11 ± 0.39	-2.95 ± 0.22
CAGUAGCAAUAUUACGCGGA	-2.93 ± 0.24	-1.64 ± 0.15
CGUGAGCAAUAUUACGAAAA		-2.88 ± 0.43
AGCUAGCAAUAUUACGUAUA	-2.28 ± 0.15	-2.12 ± 0.23
AGACAGCAAUAUUACGUAUG	-3.13 ± 0.15	-0.801 ± 0.12
AUCCAGCAAUAUUACGCUGA	-1.36 ± 0.097	-1.22 ± 0.13
GUGAAGCAAUAUUACGAGGG	-3.74 ± 0.25	-1.29 ± 0.13
CCCCAGCAAUAUUACGUUCC	-3.87 ± 0.24	-3.3 ± 0.3
UUCAAGCAAUAUUACGUAAG	-1.89 ± 0.074	-0.866 ± 0.077
CCGUAGCAAUAUUACGCUGC	-2.07 ± 0.47	-1.49 ± 0.45
CUUAAGCAAUAUUACGUAGA	-3.6 ± 0.22	-2.82 ± 0.34
CAUCAGCAAUAUUACGCAUC	-1.34 ± 0.13	-1.02 ± 0.15
CUUUAGCAAUAUUACGCCGA	-2.8 ± 0.48	-2.32 ± 0.39
GUAAAGCAAUAUUACGCUUC	-3.5 ± 0.23	-1.97 ± 0.23
GCUAAGCAAUAUUACGCCUC	-1.89 ± 0.16	-0.286 ± 0.22
CACCAGCAAUAUUACGUCCA	-3.43 ± 0.26	-2.26 ± 0.2
AGAAAGCAAUAUUACGUCUG	-0.808 ± 0.043	-0.1 ± 0.063
CCAAAGCAAUAUUACGUUAA	-3.93 ± 0.26	-1.97 ± 0.22
GGAGAGCAAUAUUACGAAUU	-3.13 ± 0.49	-2.27 ± 0.4
UAGCAGCAAUAUUACGAUUC	-3.06 ± 0.14	-2.94 ± 0.15
ACCUAGCAAUAUUACGUGUU	-3.18 ± 0.1	-1.4 ± 0.085
AUUUAGCAAUAUUACGACCU	0.0405 ± 0.29	0.114 ± 0.29
CUUAAGCAAUAUUACGUAAC	-3.05 ± 0.24	-1.26 ± 0.2
AAACAGCAAUAUUACGUUAA	-2.66 ± 0.11	-0.816 ± 0.092

Sequence	self-splicing fitness (ln) (30 °C)	self-splicing fitness (ln) (37 °C)
CGGUAGCAAUAUUACGGACA	-1.91 ± 0.32	-1.34 ± 0.29
GCAAAGCAAUAUUACGAGAU	-3.64 ± 0.16	-2.19 ± 0.12
CACAAGCAAUAUUACGUGGA	-2.95 ± 0.11	-2.81 ± 0.13
AUCAAGCAAUAUUACGGAUG	-2.01 ± 0.079	-0.664 ± 0.082
GGUGAGCAAUAUUACGGUGC	-2.09 ± 0.14	-0.734 ± 0.2
UGACAGCAAUAUUACGAAUU	-2.9 ± 0.2	-1.53 ± 0.21
UCUAAGCAAUAUUACGCUCU	-3.32 ± 0.47	-2.58 ± 0.41
AAAGAGCAAUAUUACGGAAA	-2.38 ± 0.26	-2.53 ± 0.41
UCGGAGCAAUAUUACGGGCA	-2.38 ± 0.16	-0.971 ± 0.13
UCGCAGCAAUAUUACGCCAU		-1.96 ± 0.4
AUGCAGCAAUAUUACGUUGU	-4.08 ± 0.16	-3.03 ± 0.15
CGCAAGCAAUAUUACGGUGA	-0.78 ± 0.084	-0.469 ± 0.091
GAACAGCAAUAUUACGGGAG	-2.06 ± 0.086	-1.47 ± 0.097
UCCCAGCAAUAUUACGUGAA	0.116 ± 0.045	0.582 ± 0.067
ACAAAGCAAUAUUACGGGGG	-2.81 ± 0.13	-2.19 ± 0.16
AUCAAGCAAUAUUACGAAAG	-3.67 ± 0.21	-2.74 ± 0.25
UCAGAGCAAUAUUACGGACU		-1.77 ± 0.3
CUACAGCAAUAUUACGAUCU	-4.26 ± 0.37	-1.9 ± 0.45
CGGUAGCAAUAUUACGCUCA	-0.279 ± 0.15	-0.399 ± 0.21
CUCCAGCAAUAUUACGUUUC	-3.65 ± 0.28	-3.12 ± 0.3
UCGCAGCAAUAUUACGGGUG	-1.16 ± 0.053	-1.03 ± 0.074
GCGUAGCAAUAUUACGCCGU	-2.86 ± 0.26	-3.17 ± 0.26
